Data on 6 molecules can be found in patent US20140087995A1 (published 2014).

Numbered stars: 1 amine (or outer) side, 2 acyl side, 3 side chain; on linkers, the order of the positions; unused ones are H or OH. Bridge positions count the residues as written; N and C are the ends. Side chains are listed from the residue outwards. Ends that are not written are not given here. * marks the point of attachment. C20 diacid = O=C(O)CCCCCCCCCCCCCCCCCCC(=O)*; γGlu = O=C(O)[C@H](CCC(=O)[*:2])N[*:1]; AEEA = NCCOCCOCC(=O)O

For this assay, the target named is T1, human calcitonin receptor (human, UniProt P30988 25-474).
T1 construct: whole, on cells; Assay used cell membranes of the transfected BHK cells; also called hCTR; hCT
T1 sequence (looked up): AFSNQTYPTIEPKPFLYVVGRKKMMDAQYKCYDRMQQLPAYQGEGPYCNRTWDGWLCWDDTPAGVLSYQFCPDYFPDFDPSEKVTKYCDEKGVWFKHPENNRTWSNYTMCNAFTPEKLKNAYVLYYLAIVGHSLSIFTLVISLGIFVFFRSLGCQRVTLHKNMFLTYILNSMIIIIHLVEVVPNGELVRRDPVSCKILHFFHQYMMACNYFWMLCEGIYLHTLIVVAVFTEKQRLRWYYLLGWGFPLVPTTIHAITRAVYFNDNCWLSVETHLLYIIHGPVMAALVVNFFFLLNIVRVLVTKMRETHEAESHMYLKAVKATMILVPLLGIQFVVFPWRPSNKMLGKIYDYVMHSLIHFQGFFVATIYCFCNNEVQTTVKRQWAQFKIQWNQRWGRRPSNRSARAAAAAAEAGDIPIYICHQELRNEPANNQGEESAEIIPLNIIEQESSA
The experiment in a line: SPA radioligand competition (125I-calcitonin), membranes of BHK cells with human calcitonin receptor. In outline:
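BHK hCTR membranes 35 ng/μL + SPA beads 0.05 mg/well; buffer 50 mM Hepes pH 7.4, 1 mM CaCl2, 5 mM MgCl₂, 0.1% OA, 0.02% Tween20. 120 min, 25° C., shaking. Scintillation count; IC50 by one-site binding competition.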

B1: N^ε1-[2-[2-[2-[[(4S)-4-carboxy-4-(19-carboxynonadecanoylamino)butanoyl]amino]ethoxy]ethoxy]acetyl]-[Arg17,Pro21,Pro27,Pro34,His35]-h-amylin (peptide)
peptide: K([AEEA-γGlu-C20 diacid])CNTATCATQRLANFLRHSSPNFGAIPSSTNVGPHTY-NH2
modifications: disulfide 2-7; N-terminus assumed
SMILES: CC[C@H](C)[C@H](NC(=O)[C@H](C)NC(=O)CNC(=O)[C@H](Cc1ccccc1)NC(=O)[C@H](CC(N)=O)NC(=O)[C@@H]1CCCN1C(=O)[C@H](CO)NC(=O)[C@H](CO)NC(=O)[C@H](Cc1c[nH]cn1)NC(=O)[C@H](CCCNC(=N)N)NC(=O)[C@H](CC(C)C)NC(=O)[C@H](Cc1ccccc1)NC(=O)[C@H](CC(N)=O)NC(=O)[C@H](C)NC(=O)[C@H](CC(C)C)NC(=O)[C@H](CCCNC(=N)N)NC(=O)[C@H](CCC(N)=O)NC(=O)[C@@H](NC(=O)[C@H](C)NC(=O)[C@@H]1CSSC[C@H](NC(=O)[C@@H](N)CCCCNC(=O)COCCOCCNC(=O)CC[C@H](NC(=O)CCCCCCCCCCCCCCCCCCC(=O)O)C(=O)O)C(=O)N[C@@H](CC(N)=O)C(=O)N[C@@H]([C@@H](C)O)C(=O)N[C@@H](C)C(=O)N[C@@H]([C@@H](C)O)C(=O)N1)[C@@H](C)O)C(=O)N1CCC[C@H]1C(=O)N[C@@H](CO)C(=O)N[C@@H](CO)C(=O)N[C@H](C(=O)N[C@@H](CC(N)=O)C(=O)N[C@H](C(=O)NCC(=O)N1CCC[C@H]1C(=O)N[C@@H](Cc1c[nH]cn1)C(=O)N[C@H](C(=O)N[C@@H](Cc1ccc(O)cc1)C(N)=O)[C@@H](C)O)C(C)C)[C@@H](C)O
notes: Synthetic analogue; also called compound 58
For the molecule B1, the IC50 is 9.63 nM.

B2: N^ε1-[(4S)-4-carboxy-4-(19-carboxynonadecanoylamino)butanoyl]-[Arg14,Arg17,Pro21,Pro27,Pro31]-h-amylin (peptide)
peptide: K([γGlu-C20 diacid])CNTATCATQRLARFLRHSSPNFGAIPSSTPVGSNTY-NH2
modifications: disulfide 2-7; N-terminus assumed
SMILES: CC[C@H](C)[C@H](NC(=O)[C@H](C)NC(=O)CNC(=O)[C@H](Cc1ccccc1)NC(=O)[C@H](CC(N)=O)NC(=O)[C@@H]1CCCN1C(=O)[C@H](CO)NC(=O)[C@H](CO)NC(=O)[C@H](Cc1c[nH]cn1)NC(=O)[C@H](CCCNC(=N)N)NC(=O)[C@H](CC(C)C)NC(=O)[C@H](Cc1ccccc1)NC(=O)[C@H](CCCNC(=N)N)NC(=O)[C@H](C)NC(=O)[C@H](CC(C)C)NC(=O)[C@H](CCCNC(=N)N)NC(=O)[C@H](CCC(N)=O)NC(=O)[C@@H](NC(=O)[C@H](C)NC(=O)[C@@H]1CSSC[C@H](NC(=O)[C@@H](N)CCCCNC(=O)CC[C@H](NC(=O)CCCCCCCCCCCCCCCCCCC(=O)O)C(=O)O)C(=O)N[C@@H](CC(N)=O)C(=O)N[C@@H]([C@@H](C)O)C(=O)N[C@@H](C)C(=O)N[C@@H]([C@@H](C)O)C(=O)N1)[C@@H](C)O)C(=O)N1CCC[C@H]1C(=O)N[C@@H](CO)C(=O)N[C@@H](CO)C(=O)N[C@H](C(=O)N1CCC[C@H]1C(=O)N[C@H](C(=O)NCC(=O)N[C@@H](CO)C(=O)N[C@@H](CC(N)=O)C(=O)N[C@H](C(=O)N[C@@H](Cc1ccc(O)cc1)C(N)=O)[C@@H](C)O)C(C)C)[C@@H](C)O
notes: Synthetic analogue; also called compound 63
On to B2, for which the IC50 was found to be 130 nM.

B3: N^ε1-[2-[2-[2-[[(4S)-4-carboxy-4-(19-carboxynonadecanoylamino)butanoyl]amino]ethoxy]ethoxy]acetyl]-[Arg17,Pro21,Pro27,Pro34]-h-amylin (peptide)
peptide: K([AEEA-γGlu-C20 diacid])CNTATCATQRLANFLRHSSPNFGAIPSSTNVGPNTY-NH2
modifications: disulfide 2-7; N-terminus assumed
SMILES: CC[C@H](C)[C@H](NC(=O)[C@H](C)NC(=O)CNC(=O)[C@H](Cc1ccccc1)NC(=O)[C@H](CC(N)=O)NC(=O)[C@@H]1CCCN1C(=O)[C@H](CO)NC(=O)[C@H](CO)NC(=O)[C@H](Cc1c[nH]cn1)NC(=O)[C@H](CCCNC(=N)N)NC(=O)[C@H](CC(C)C)NC(=O)[C@H](Cc1ccccc1)NC(=O)[C@H](CC(N)=O)NC(=O)[C@H](C)NC(=O)[C@H](CC(C)C)NC(=O)[C@H](CCCNC(=N)N)NC(=O)[C@H](CCC(N)=O)NC(=O)[C@@H](NC(=O)[C@H](C)NC(=O)[C@@H]1CSSC[C@H](NC(=O)[C@@H](N)CCCCNC(=O)COCCOCCNC(=O)CC[C@H](NC(=O)CCCCCCCCCCCCCCCCCCC(=O)O)C(=O)O)C(=O)N[C@@H](CC(N)=O)C(=O)N[C@@H]([C@@H](C)O)C(=O)N[C@@H](C)C(=O)N[C@@H]([C@@H](C)O)C(=O)N1)[C@@H](C)O)C(=O)N1CCC[C@H]1C(=O)N[C@@H](CO)C(=O)N[C@@H](CO)C(=O)N[C@H](C(=O)N[C@@H](CC(N)=O)C(=O)N[C@H](C(=O)NCC(=O)N1CCC[C@H]1C(=O)N[C@@H](CC(N)=O)C(=O)N[C@H](C(=O)N[C@@H](Cc1ccc(O)cc1)C(N)=O)[C@@H](C)O)C(C)C)[C@@H](C)O
notes: Synthetic analogue; also called compound 50
B3: the IC50 is 1.38 nM.

B4: N^ε1-[(4S)-4-carboxy-4-(19-carboxynonadecanoylamino)butanoyl]-[Arg17,Pro21,Pro27,His35]-h-amylin (peptide)
peptide: K([γGlu-C20 diacid])CNTATCATQRLANFLRHSSPNFGAIPSSTNVGSHTY-NH2
modifications: disulfide 2-7; N-terminus assumed
SMILES: CC[C@H](C)[C@H](NC(=O)[C@H](C)NC(=O)CNC(=O)[C@H](Cc1ccccc1)NC(=O)[C@H](CC(N)=O)NC(=O)[C@@H]1CCCN1C(=O)[C@H](CO)NC(=O)[C@H](CO)NC(=O)[C@H](Cc1c[nH]cn1)NC(=O)[C@H](CCCNC(=N)N)NC(=O)[C@H](CC(C)C)NC(=O)[C@H](Cc1ccccc1)NC(=O)[C@H](CC(N)=O)NC(=O)[C@H](C)NC(=O)[C@H](CC(C)C)NC(=O)[C@H](CCCNC(=N)N)NC(=O)[C@H](CCC(N)=O)NC(=O)[C@@H](NC(=O)[C@H](C)NC(=O)[C@@H]1CSSC[C@H](NC(=O)[C@@H](N)CCCCNC(=O)CC[C@H](NC(=O)CCCCCCCCCCCCCCCCCCC(=O)O)C(=O)O)C(=O)N[C@@H](CC(N)=O)C(=O)N[C@@H]([C@@H](C)O)C(=O)N[C@@H](C)C(=O)N[C@@H]([C@@H](C)O)C(=O)N1)[C@@H](C)O)C(=O)N1CCC[C@H]1C(=O)N[C@@H](CO)C(=O)N[C@@H](CO)C(=O)N[C@H](C(=O)N[C@@H](CC(N)=O)C(=O)N[C@H](C(=O)NCC(=O)N[C@@H](CO)C(=O)N[C@@H](Cc1c[nH]cn1)C(=O)N[C@H](C(=O)N[C@@H](Cc1ccc(O)cc1)C(N)=O)[C@@H](C)O)C(C)C)[C@@H](C)O
notes: Synthetic analogue; also called compound 60
Turning to B4, the IC50 was 31.4 nM.

B5: N^ε1-[(4S)-4-carboxy-4-(19-carboxynonadecanoylamino)butanoyl]-[Glu14,Arg17,Pro21,Pro27,Arg35]-h-amylin (peptide)
peptide: K([γGlu-C20 diacid])CNTATCATQRLAEFLRHSSPNFGAIPSSTNVGSRTY-NH2
modifications: disulfide 2-7; N-terminus assumed
SMILES: CC[C@H](C)[C@H](NC(=O)[C@H](C)NC(=O)CNC(=O)[C@H](Cc1ccccc1)NC(=O)[C@H](CC(N)=O)NC(=O)[C@@H]1CCCN1C(=O)[C@H](CO)NC(=O)[C@H](CO)NC(=O)[C@H](Cc1c[nH]cn1)NC(=O)[C@H](CCCNC(=N)N)NC(=O)[C@H](CC(C)C)NC(=O)[C@H](Cc1ccccc1)NC(=O)[C@H](CCC(=O)O)NC(=O)[C@H](C)NC(=O)[C@H](CC(C)C)NC(=O)[C@H](CCCNC(=N)N)NC(=O)[C@H](CCC(N)=O)NC(=O)[C@@H](NC(=O)[C@H](C)NC(=O)[C@@H]1CSSC[C@H](NC(=O)[C@@H](N)CCCCNC(=O)CC[C@H](NC(=O)CCCCCCCCCCCCCCCCCCC(=O)O)C(=O)O)C(=O)N[C@@H](CC(N)=O)C(=O)N[C@@H]([C@@H](C)O)C(=O)N[C@@H](C)C(=O)N[C@@H]([C@@H](C)O)C(=O)N1)[C@@H](C)O)C(=O)N1CCC[C@H]1C(=O)N[C@@H](CO)C(=O)N[C@@H](CO)C(=O)N[C@H](C(=O)N[C@@H](CC(N)=O)C(=O)N[C@H](C(=O)NCC(=O)N[C@@H](CO)C(=O)N[C@@H](CCCNC(=N)N)C(=O)N[C@H](C(=O)N[C@@H](Cc1ccc(O)cc1)C(N)=O)[C@@H](C)O)C(C)C)[C@@H](C)O
notes: Synthetic analogue; also called compound 51
As to B5, the IC50 was 31.1 nM.

B6: N^ε1-[2-[2-[2-[[(4S)-4-carboxy-4-(19-carboxynonadecanoylamino)butanoyl]amino]ethoxy]ethoxy]acetyl]-[His14,Arg17,Pro21,Pro27,Pro31]-h-amylin (peptide)
peptide: K([AEEA-γGlu-C20 diacid])CNTATCATQRLAHFLRHSSPNFGAIPSSTPVGSNTY-NH2
modifications: disulfide 2-7; N-terminus assumed
SMILES: CC[C@H](C)[C@H](NC(=O)[C@H](C)NC(=O)CNC(=O)[C@H](Cc1ccccc1)NC(=O)[C@H](CC(N)=O)NC(=O)[C@@H]1CCCN1C(=O)[C@H](CO)NC(=O)[C@H](CO)NC(=O)[C@H](Cc1c[nH]cn1)NC(=O)[C@H](CCCNC(=N)N)NC(=O)[C@H](CC(C)C)NC(=O)[C@H](Cc1ccccc1)NC(=O)[C@H](Cc1c[nH]cn1)NC(=O)[C@H](C)NC(=O)[C@H](CC(C)C)NC(=O)[C@H](CCCNC(=N)N)NC(=O)[C@H](CCC(N)=O)NC(=O)[C@@H](NC(=O)[C@H](C)NC(=O)[C@@H]1CSSC[C@H](NC(=O)[C@@H](N)CCCCNC(=O)COCCOCCNC(=O)CC[C@H](NC(=O)CCCCCCCCCCCCCCCCCCC(=O)O)C(=O)O)C(=O)N[C@@H](CC(N)=O)C(=O)N[C@@H]([C@@H](C)O)C(=O)N[C@@H](C)C(=O)N[C@@H]([C@@H](C)O)C(=O)N1)[C@@H](C)O)C(=O)N1CCC[C@H]1C(=O)N[C@@H](CO)C(=O)N[C@@H](CO)C(=O)N[C@H](C(=O)N1CCC[C@H]1C(=O)N[C@H](C(=O)NCC(=O)N[C@@H](CO)C(=O)N[C@@H](CC(N)=O)C(=O)N[C@H](C(=O)N[C@@H](Cc1ccc(O)cc1)C(N)=O)[C@@H](C)O)C(C)C)[C@@H](C)O
notes: Synthetic analogue; also called compound 61
On to B6, for which the IC50 came to 8.11 nM.
